In patent publication US7425614B2, “Neuroprotective therapeutics preventing ERK/MAPK activation through the NMDA receptor” (Children's Medical Center Corporation, priority 2003, dated 2008):

Columns and labels:
ERK = assay: phospho-ERK immunocytochemistry in cultured hippocampal neurons; format: cell-based, rat; settings: cultured hippocampal neurons
Method: Neurons from 18 day rat embryos were dissociated using trypsin and plated on coverslips coated with poly-L-ysine in minimal essential medium (MEM) with 10% NU serum (BD Biosciences, Le Pont de Claix, France) at densities of 30,000 cells/cm^2 as described (Brewer, G. J. (1995) J. Neurosci. Res. 42, 674-683). On days 7 and 11 of culture incubation, half of the medium was changed to MEM with 2% B27 supplement (Invitrogen).
Cells were transfected with cDNA for EGFP fusion proteins (LipofectAMINE 2000; Invitrogen) or by pseudoviral infection using a Sindbis expression system (Invitrogen). Neurons were incubated with cDNA and LipofectAMINE for 2 hr, rinsed, and incubated with culture media (MEM with 2% of B27 supplement) 17 hr prior to the experiment. For viral delivery, neuronal cultures were incubated 30 min with pseudoviral constructs diluted 200-500× in culture media. Cultures were rinsed and incubated in media for 15 hr. 0.1% to 1.5% of neurons were fluorescent after expressing LipofectAMINE-delivered constructs while Sindbis infection yielded 1%-10% transfection efficiency. Most of the experiments were performed on 12-14 days in vitro (div) cultures unless otherwise indicated.
Three hours before stimulation, TTX (1 μM), CNQX (40 μM), APV (100 μM), and nimodipine (5 μM) were added to neurons. For stimulation, coverslips with neurons were transferred into the following solutions.
(1) 100 μM NMDA, 10 μM glycine, 1 μM TTX, 40 μM CNQX, 5 μM nimodipine dissolved in culture media and incubated for 3 min. […]
After stimulation, neurons were fixed with 4% formaldehyde and labeled with rabbit anti-phospho-p44/42 ERK antibody (Cell Signaling) and with mouse anti-MAP2 antibody (Sternberger Monoclonals). Cy3-conjugated goat anti-rabbit IgG and Cy5-conjugated goat antimouse IgG (Jackson Immunoresearch Laboratories, West Grove, Pa.) were secondary antibodies. NMDA and all antagonists were from Tocris Neuramin. BDNF was from Calbiochem. Images were acquired with an Olympus Fluoview-500 confocal microscope (40×; 1.0 NA) and quantified using Olympus Fluoview software. In each experiment, the pERK fluorescence of the cell soma was measured for 25 neurons taken from consecutive fields. Phospho-ERK fluorescence data were normalized to the values obtained in nontransfected cells after NMDA stimulation. The background fluorescence (mean fluorescence of nonstimulated neurons) was subtracted prior to normalization.

CA1 pyramidal neurons = assay: Assay II: propidium iodide (PI) resistance in organotypic hippocampal slice cultures; format: cell-based, rat; settings: NMDA (50 μM) 20 minutes or ischemia; compared to non-transfected or GFP transfected control cells
Method: (A) Survival of hippocampal neurons in culture exposed to Glutamate (100 μM) and Glycine (10 μM) for a 20 minute period. 14 div neuronal cultures were transfected with GFP, NR2B-BD or RasGRF1-BD 24 hours prior to analysis. The neuronal cultures were then incubated with glutamate for 20 minutes, washed with culture media and returned to the incubator for an additional 24 hours. The cells were then fixed with PFA and stained with a neuronal specific antibody, Map2. […] (B) Percentage of propidium iodide-resistant (surviving) neurons in organotypic hippocampal slices (P5+7div) expressing GFP, NR2B-BD or […] in control conditions and after 20 minutes exposure to NMDA (50 μM). The fluorescence of propidium iodide (PI) was measured 24 hours later. PI enters damaged cells and is a convenient tool to determine neuronal cell death. For PI staining, the slices were incubated in culture medium containing 0.1 mg/ml PI for 2 h. […]
Assay II: propidium iodide (PI) resistance. […] Cell death was measured as cellular uptake of PI (3,8-diamino-5-[3-([…])propyl]-6-phenyl phenanthridinium diiodide at 24 and 48 h after exposure to NMDA or ischemia. As shown in FIG. 7(B), the expression of both NR2B-BD and RasGRF1-BD increased the percentage of neuronal survival (e.g., the percentage of PI negative neurons) as compared to non-transfected or GFP transfected control cells.

B1: NR2B-BD: peptide of amino acids 886-1310 of the NR2B C-terminal domain that binds RasGRF1; used as NusA or EGFP fusion (protein)
chain: SPTATMNNTHSNILRLLRTAKNMANLSGVNGSPQSALDFIRRESSVYDISEHRRSFTHSDCKSYNNPPCEENLFSDYISEVERTFGNLQLKDSNVYQDHYHHHHRPHSIGSTSSIDGLYDCDNPPFTTQPRSISKKPLDIGLPSSKHSQLSDLYGKFSFKSDRYSGHDDLIRSDVSDISTHTVTYGNIEGNAAKRRKQQYKDSLKKRPASAKSRREFDEIELAYRRRPPRSPDHKRYFRDKEGLRDFYLDQFRTKENSPHWEHVDLTDIYKERSDDFKRDSVSGGGPCTNRSHLKHGTGEKHGVVGGVPAPWEKNLTNVDWEDRSGGNFCRSCPSKLHNYSSTVAGQNSGRQACIRCEACKKAGNLYDISKDNSLQELDQPAAPVAVTSNASSTKYPQSPTNSKAQKKNRNKLRRQHSYDTFVDL
modifications: left off: small tags and cut ends
notes: used as NusA or EGFP fusion
- BDNF-induced ERK activation (ERK; 100 ng/ml BDNF): had no effect
- NMDA-induced (NMDAR-dependent) ERK activation (ERK; 100 μM NMDA): inhibit
- depolarization-induced ERK activation (ERK; 50 mM KCl): had no effect
- percentage of neuronal survival (PI negative neurons) (CA1 pyramidal neurons): increased
